Experimental data: US10947270B2, “Targeted prodrug cytosine deaminase fusion carrier and application thereof” (National Yang-Ming University, priority 2015, dated 2021)
Where a chain is given by its changes, count along the chain named. Numbers in names are those of the source. Where “and” joins values, the source holds several entries; their conditions need not be identical. Equal values may be shown once. Read-outs that look alike come from different tables or passages of the source.

B1: RGD4C-EcCD_WT: targeted prodrug enzyme fusion protein (SEQ ID NO: 19) (protein)
chain: MGCDCRGDCFCMSNNALQTIINARLPGEEGLWQIHLQDGKISAIDAQSGVMPITENSLDAEQGLVIPPFVEPHIHLDTTQTAGQPNWNQSGTLFEGIERWAERKALLTHDDVKQRAWQTLKWQIANGIQHVRTHVDVSDATLTALKAMLEVKQEVAPWIDLQIVAFPQEGILSYPNGEALLEEALRLRADVVGAIPHFEFTREYGVESLHKTFALAQKYDRLIDVHCDEIDDEQSRFVETVAALAHHEGMGARVTASHTTAMHSYNGAYTSRLFRLLKMSGINFVANPLVNIHLQGRFDTYPKRRGITRVKEMLESGINVCFGHDDVFDPWYPLGTANMLQVLHMGLHVCQLMGYGQINDGLNLITHHSARTLNLQDYGIAAGNSANLIILPAENGFDALRRQVPVRYSVRGGKVIASTQPAQTTVYLEQPEAIDYKRLEHHHHHH
modifications: RGD4C_EcCD_WT
B2: RGD4C-EcCD_D314A: targeted prodrug enzyme fusion protein (SEQ ID NO: 20) (protein)
chain: B1 chain with D326A
modifications: RGD4C_EcCD_D314A
B3: EcCD_WT: E. coli. cytosine deaminase (EcCD), wild type, without target molecule (protein)
chain: MSNNALQTIINARLPGEEGLWQIHLQDGKISAIDAQSGVMPITENSLDAEQGLVIPPFVEPHIHLDTTQTAGQPNWNQSGTLFEGIERWAERKALLTHDDVKQRAWQTLKWQIANGIQHVRTHVDVSDATLTALKAMLEVKQEVAPWIDLQIVAFPQEGILSYPNGEALLEEALRLRADVVGAIPHFEFTREYGVESLHKTFALAQKYDRLIDVHCDEIDDEQSRFVETVAALAHHEGMGARVTASHTTAMHSYNGAYTSRLFRLLKMSGINFVANPLVNIHLQGRFDTYPKRRGITRVKEMLESGINVCFGHDDVFDPWYPLGTANMLQVLHMGLHVCQLMGYGQINDGLNLITHHSARTLNLQDYGIAAGNSANLIILPAENGFDALRRQVPVRYSVRGGKVIASTQPAQTTVYLEQPEAIDYKRLEHHHHHH
modifications: EcCD_WT
notes: E. coli. cytosine deaminase (EcCD), wild type, without target molecule
B4: EcCD_D314A: E. coli. cytosine deaminase (EcCD) mutant D314A, without target molecule (protein)
chain: B3 chain with D315A
modifications: EcCD_D314A
notes: E. coli. cytosine deaminase (EcCD) mutant D314A, without target molecule

What was measured:
[1] = Enzyme kinetic analysis of EcCD series fusion proteins, substrate 5-FC; type: biochemical; conditions: for Kcat/Km higher than that of the corresponding WT protein: substrate 5-FC
Source text: (§1) FIGS. 11A-11D show the activity and kinetics analysis of EcCD series fusion protein enzymes, and the EcCD series proteins are combined with 5-FC at different concentrations for reaction. Respectively calculate the 5-FU formation reaction rate shown in FIG. 11A, 5-FC consumption reaction rate shown in FIG. 10B, uracil formation reaction rate shown in FIG. 10C and cytosine consumption reaction rate shown in FIG. 10D, substitute Michaelis-Menten formula, and calculate the base mass (Kcat) and Km value catalyzed by each mol enzyme in unit time.

U87MG, HUVEC cells = assay: RGDfv peptide competition of EcCD fusion protein binding to cells; type: cell-based, human; conditions: RGDfv peptide at 10-fold relative concentration
Protocol: FIGS. 14A-14E show the binding activity and specificity test of EcCD fusion protein and U87MG, HUVEC and MCF-7 cell strain. […] (***compared to the untreated RGDfv group, P value<0.001, indicating a statistically significant difference)
It is confirmed from the above experimental results that the EcCD series protein fused to the RGD4C peptide has the binding activity with the expressing αvβ3 integrin cell strain, and the binding has the specificity of the RGD4C peptide and αvβ3 integrin of the cell expression, and also confirmed that the D314A mutation will not affect the binding activity of the RGD4C peptide and αvβ3 integrin.

[2] = Relative substrate selectivity of cytosine deaminase enzyme for 5-FC and cytosine (formula 1); type: biochemical; conditions: for [Kcat/Km(5-FC)]/{[Kcat/Km(cytosine)] + [Kcat/Km(5-FC)]}: relative substrate selectivity to 5-FC
Source text: Evaluation of the relative substrate selectivity of cytosine deaminase enzyme for 5-FC and Cytosine can be expressed by the following formula 1,
The higher the value, the higher the selectivity of the enzyme to the 5-FC substrate.

[3] = system: U87MG, HUVEC and MCF-7 cells; assay: Immunofluorescence of binding and distribution of EcCD fusion proteins in cells; type: cell-based, human; conditions: 37° C., 2 hours
Protocol: FIGS. 15A-15C show the binding and distribution of EcCD fusion proteins in U87MG, HUVEC and MCF-7 cell strain. The immunofluorescence staining is used to observe and experiment the EcCD fusion protein, which are respectively acted with U87MG cells in FIG. 15A, HUVEC cells in FIG. 15B and MCF-7 cells in FIG. 15C for 2 hours at 37° C., then fixed with 2% para-formadehyde, the fixed cells are first permeabilized with 0.1% Triton X-100 for 10 minutes, after that, cultured with 1% BSA blocking (dissolved in PBS containing Ca^2+, Mg^2+) for 1 hour at room temperature, then add a 1st antibody (Rabbit anti-His^6tag, Mouse anti-human CD51/61αvβ3 integrin), and then add a 2nd antibody (Anti-rabbit IgG-CF640R, Anti-mouse IgG-Alexa488), the protein distribution is observed by conjugated fluorescence microscope. (Green signal: αvβ3 integrin; red signal: anti-His^6tag; blue signal: Hoechst 33342 cell nucleus stain) (Scale bars: 20 μm)
Immunofluorescence is used to observe the distribution of the protein bound with cell in the cell. U87MG, HUVEC and MCF-7 cells act with culture medium containing EcCD_WT, RGD4C-EcCD_WT, EcCD_D314A and RGD4C-EcCD_D314A proteins at 37° C. for 2 hours, stain the cell, and observe protein distribution by the conjugated fluorescence microscopy.

αvβ3 integrin = αvβ3 integrin (Homo sapiens, UniProt P05106+P06756); assay: ELISA binding of EcCD series fusion protein and αvβ3 integrin
Sequence of αvβ3 integrin (P06756 31-889 limits assumed): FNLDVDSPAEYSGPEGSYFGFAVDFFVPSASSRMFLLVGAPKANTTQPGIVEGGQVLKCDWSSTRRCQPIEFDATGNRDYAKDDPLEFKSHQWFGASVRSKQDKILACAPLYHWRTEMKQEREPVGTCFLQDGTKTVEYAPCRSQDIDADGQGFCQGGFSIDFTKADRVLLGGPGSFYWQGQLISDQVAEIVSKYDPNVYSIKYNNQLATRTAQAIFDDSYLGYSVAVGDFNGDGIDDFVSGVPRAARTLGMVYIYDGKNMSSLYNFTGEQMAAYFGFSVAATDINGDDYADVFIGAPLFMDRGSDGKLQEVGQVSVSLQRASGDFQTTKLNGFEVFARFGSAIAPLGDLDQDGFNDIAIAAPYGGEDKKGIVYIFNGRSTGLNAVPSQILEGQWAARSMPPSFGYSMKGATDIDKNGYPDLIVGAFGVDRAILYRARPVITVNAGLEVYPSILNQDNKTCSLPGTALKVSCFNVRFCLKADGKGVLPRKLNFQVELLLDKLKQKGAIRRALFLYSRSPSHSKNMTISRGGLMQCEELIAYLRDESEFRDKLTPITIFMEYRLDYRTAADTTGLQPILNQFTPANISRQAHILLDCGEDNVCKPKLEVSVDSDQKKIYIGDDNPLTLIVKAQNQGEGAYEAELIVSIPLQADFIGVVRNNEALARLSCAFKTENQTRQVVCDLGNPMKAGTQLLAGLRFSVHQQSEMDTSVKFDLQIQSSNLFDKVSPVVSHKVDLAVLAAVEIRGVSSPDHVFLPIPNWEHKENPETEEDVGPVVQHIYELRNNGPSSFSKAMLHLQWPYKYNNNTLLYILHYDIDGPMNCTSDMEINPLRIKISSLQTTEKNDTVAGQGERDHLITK
Sequence of αvβ3 integrin (P06756 891-1048 partner limits assumed): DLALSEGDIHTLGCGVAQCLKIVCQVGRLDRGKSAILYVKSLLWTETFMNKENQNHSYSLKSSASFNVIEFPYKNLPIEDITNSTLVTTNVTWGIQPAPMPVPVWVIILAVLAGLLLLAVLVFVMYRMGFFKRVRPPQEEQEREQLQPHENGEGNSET
Sequence of αvβ3 integrin (P05106 27-788): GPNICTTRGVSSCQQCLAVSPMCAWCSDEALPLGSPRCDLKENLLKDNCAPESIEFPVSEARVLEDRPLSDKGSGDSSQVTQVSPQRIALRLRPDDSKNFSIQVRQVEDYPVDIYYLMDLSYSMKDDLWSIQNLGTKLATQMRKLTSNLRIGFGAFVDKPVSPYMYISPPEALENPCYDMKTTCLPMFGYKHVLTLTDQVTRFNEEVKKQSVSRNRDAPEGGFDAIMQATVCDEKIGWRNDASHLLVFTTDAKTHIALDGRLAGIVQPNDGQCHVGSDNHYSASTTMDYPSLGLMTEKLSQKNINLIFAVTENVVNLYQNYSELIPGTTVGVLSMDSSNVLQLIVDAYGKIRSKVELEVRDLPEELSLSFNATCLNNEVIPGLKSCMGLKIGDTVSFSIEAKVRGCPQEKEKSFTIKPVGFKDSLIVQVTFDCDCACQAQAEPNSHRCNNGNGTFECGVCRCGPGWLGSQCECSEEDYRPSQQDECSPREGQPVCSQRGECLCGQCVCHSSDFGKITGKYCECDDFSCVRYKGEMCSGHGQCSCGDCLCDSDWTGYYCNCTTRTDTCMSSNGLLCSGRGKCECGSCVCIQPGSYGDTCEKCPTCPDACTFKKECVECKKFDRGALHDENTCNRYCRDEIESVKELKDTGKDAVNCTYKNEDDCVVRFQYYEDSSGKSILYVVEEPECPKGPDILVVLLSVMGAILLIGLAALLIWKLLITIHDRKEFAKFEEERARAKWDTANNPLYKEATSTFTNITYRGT
Source text: FIGS. 13A-13B show the binding activity and specificity test of EcCD fusion protein and αvβ3 integrin receptor. […] (***compared with untreated RGDfv group, P value<0.001, indicating a statistically significant difference)
To confirm the binding ability of RGD4C peptide and αvβ3 integrin, the affinity of the protein and αvβ3 integrin is confirmed by ELISA method. […] This experiment confirms that RGD4C-EcCD_WT and RGD4C-EcCD_D314A have the binding activity of αvβ3 integrin, and this binding has the specificity of RGD4C peptide αvβ3 integrin.

[4] = Enzyme kinetic analysis of EcCD series fusion proteins, substrate cytosine; type: biochemical; conditions: for Kcat/Km lower than that of the corresponding WT protein: substrate cytosine
Source text: as §1, with “time. […]” for “time.”

[5] = literature, Biochemistry 2004, 43, 8957-8964; cited from earlier work
[6] = 5-FC consumption (Table 5), listed as RGD4C-EcCDWT
[7] = 5-FU generation, listed as RGD4C-EcCDWT
[8] = RGDfv peptide at 10-fold concentration
[9] = RGDfv peptide at same concentration
[10] = cytosine consumption, listed as RGD4C-EcCDWT
[11] = uracil generation, listed as RGD4C-EcCDWT

Molecule	Kcat ([1]; 5-FC consumption (Table 5))	Km ([1]; 5-FC consumption (Table 5))	Kcat ([1]; 5-FU generation)	Km ([1]; 5-FU generation)	inhibition of binding by RGDfv peptide competition (U87MG, HUVEC cells)	[Kcat/Km(5-FC)]/{[Kcat/Km(cytosine)] + [Kcat/Km(5-FC)]} [2]	binding with cells [3]	internalization [3]	inhibition of binding capacity by RGDfv peptide (αvβ3 integrin; [8])	inhibition of binding capacity by RGDfv peptide (αvβ3 integrin; [9])	Kcat ([4]; cytosine consumption)	Km ([4]; cytosine consumption)	Kcat ([4]; uracil generation)	Km ([4]; uracil generation)	Kcat/Km higher than that of the corresponding WT protein [1]	relative substrate selectivity to 5-FC higher than the corresponding WT protein [2]	Kcat/Km lower than that of the corresponding WT protein [4]	[Kcat/Km(5-FC)]/{[Kcat/Km(cytosine)] + [Kcat/Km(5-FC)]} [5]	further results
B1	10.7 ± 0.5 s⁻¹	2.3 ± 0.4 mM	10.8 ± 0.6 s⁻¹	2.3 ± 0.5 mM	about 50%	0.047	have the ability of binding with U87MG and HUVEC cells	will enter the internalization	about 80%	about 30%	148.9 ± 4.7 s⁻¹	1.7 ± 0.2 mM	141.7 ± 5.5 s⁻¹	1.5 ± 0.2 mM					Kcat [1, 6]: 10.9 ± 0.5 s⁻¹; Km [1, 6]: 2.4 ± 0.4 mM; Kcat [1, 7]: 10.8 ± 0.5 s⁻¹; Km [1, 7]: 2.4 ± 0.5 mM; [Kcat/Km(5-FC)]/{[Kcat/Km(cytosine)] + [Kcat/Km(5-FC)]} ([2]; listed as RGD4C- EcCDWT): 0.048; Kcat [4, 10]: 143.9 ± 5.1 s⁻¹; Km [4, 10]: 1.6 ± 0.2 mM; Kcat [4, 11]: 150.8 ± 4.4 s⁻¹; Km [4, 11]: 1.7 ± 0.1 mM
B2	38.6 ± 1.0 s⁻¹ and 39.1 ± 1.0 s⁻¹	3.5 ± 0.2 mM	39.4 ± 1.1 s⁻¹ and 38.4 ± 0.8 s⁻¹	3.5 mM and 3.4 mM	about 50%	0.648	have the ability of binding with U87MG and HUVEC cells	will enter the internalization	about 80%	about 30%	17.7 ± 1.3 s⁻¹	3 mM and 2.9 mM	21.7 ± 4.8 s⁻¹	3.8 ± 1.7 mM	about 2.4 times	about 13.8 times	about 15.5 times		[Kcat/Km(5-FC)]/{[Kcat/Km(cytosine)] + [Kcat/Km(5-FC)]} ([2]; listed as RGD4C- EcCD_D314A): 0.664
B3	9.2 ± 0.8 s⁻¹ and 8.8 ± 0.8 s⁻¹	2.8 mM and 2.7 mM	8.8 ± 0.9 s⁻¹ and 9.2 ± 0.6 s⁻¹	2.9 ± 0.8 mM		0.032	do not have the ability of binding with U87MG and HUVEC cells				132.0 ± 5.0 s⁻¹	1.3 ± 0.1 mM	157.3 ± 2.4 s⁻¹	1.6 mM and 1.7 mM				0.027	[Kcat/Km(5-FC)]/{[Kcat/Km(cytosine)] + [Kcat/Km(5-FC)]} ([2]; listed as EcCDWT): 0.033
B4	35.1 ± 1.7 s⁻¹ and 36.2 ± 1.5 s⁻¹	3.8 mM and 4 mM	36.2 ± 1.8 s⁻¹ and 35.4 ± 0.8 s⁻¹	3.9 ± 0.6 mM		0.558 and 0.535	do not have the ability of binding with U87MG and HUVEC cells				22.3 ± 1.6 s⁻¹	2.6 ± 0.4 mM	24.5 ± 1.1 s⁻¹	3 mM and 3.1 mM	about 3.1 times	about 17.4 times	about 12.5 times	0.513	
